Results: patent US20140087995A1 (published 2014)
Numbered stars: 1 amine (or outer) side, 2 acyl side, 3 side chain; on linkers, the order of the positions; unused ones are H or OH. Bridge positions count the residues as written; N and C are the ends. Side chains are listed from the residue outwards. Ends that are not written are not given here. * marks the point of attachment. C20 diacid = O=C(O)CCCCCCCCCCCCCCCCCCC(=O)*; γGlu = O=C(O)[C@H](CCC(=O)[*:2])N[*:1]; AEEA = NCCOCCOCC(=O)O

T1: human amylin 3(a) receptor (human calcitonin receptor co-expressed with RAMP-3) (human, UniProt P30988 25-474; O60896 24-148, limits assumed)
T1 sequence (looked up) 1: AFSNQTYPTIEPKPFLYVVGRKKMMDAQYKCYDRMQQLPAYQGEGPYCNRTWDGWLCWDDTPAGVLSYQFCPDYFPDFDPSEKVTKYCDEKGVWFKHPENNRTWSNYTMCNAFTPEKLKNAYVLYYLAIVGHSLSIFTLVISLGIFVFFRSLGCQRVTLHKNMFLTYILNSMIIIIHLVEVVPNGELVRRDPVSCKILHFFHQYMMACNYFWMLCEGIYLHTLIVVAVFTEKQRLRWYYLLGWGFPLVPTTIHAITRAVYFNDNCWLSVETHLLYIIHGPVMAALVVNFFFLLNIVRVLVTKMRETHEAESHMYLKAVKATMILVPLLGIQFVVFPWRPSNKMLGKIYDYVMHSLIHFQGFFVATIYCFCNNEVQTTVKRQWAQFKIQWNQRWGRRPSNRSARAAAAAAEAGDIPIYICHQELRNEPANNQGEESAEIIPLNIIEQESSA
T1 sequence (looked up) 2: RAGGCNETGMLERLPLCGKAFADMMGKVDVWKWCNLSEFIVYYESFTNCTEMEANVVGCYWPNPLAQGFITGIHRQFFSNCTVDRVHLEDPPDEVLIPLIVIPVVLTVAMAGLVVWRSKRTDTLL

B1: N^ε1-[2-[2-[2-[[(4S)-4-carboxy-4-(19-carboxynonadecanoylamino)butanoyl]amino]ethoxy]ethoxy]acetyl]-[Arg17,Pro21,Pro27]-h-amylin (peptide)
peptide: K([AEEA-γGlu-C20 diacid])CNTATCATQRLANFLRHSSPNFGAIPSSTNVGSNTY-NH2
modifications: disulfide 2-7; N-terminus assumed
SMILES: CC[C@H](C)[C@H](NC(=O)[C@H](C)NC(=O)CNC(=O)[C@H](Cc1ccccc1)NC(=O)[C@H](CC(N)=O)NC(=O)[C@@H]1CCCN1C(=O)[C@H](CO)NC(=O)[C@H](CO)NC(=O)[C@H](Cc1c[nH]cn1)NC(=O)[C@H](CCCNC(=N)N)NC(=O)[C@H](CC(C)C)NC(=O)[C@H](Cc1ccccc1)NC(=O)[C@H](CC(N)=O)NC(=O)[C@H](C)NC(=O)[C@H](CC(C)C)NC(=O)[C@H](CCCNC(=N)N)NC(=O)[C@H](CCC(N)=O)NC(=O)[C@@H](NC(=O)[C@H](C)NC(=O)[C@@H]1CSSC[C@H](NC(=O)[C@@H](N)CCCCNC(=O)COCCOCCNC(=O)CC[C@H](NC(=O)CCCCCCCCCCCCCCCCCCC(=O)O)C(=O)O)C(=O)N[C@@H](CC(N)=O)C(=O)N[C@@H]([C@@H](C)O)C(=O)N[C@@H](C)C(=O)N[C@@H]([C@@H](C)O)C(=O)N1)[C@@H](C)O)C(=O)N1CCC[C@H]1C(=O)N[C@@H](CO)C(=O)N[C@@H](CO)C(=O)N[C@H](C(=O)N[C@@H](CC(N)=O)C(=O)N[C@H](C(=O)NCC(=O)N[C@@H](CO)C(=O)N[C@@H](CC(N)=O)C(=O)N[C@H](C(=O)N[C@@H](Cc1ccc(O)cc1)C(N)=O)[C@@H](C)O)C(C)C)[C@@H](C)O
notes: also called compound 41
B2: N^ε-[(4S)-4-carboxy-4-(19-carboxynonadecanoylamino)butanoyl]Lys[Arg1,Arg17,Pro21,Pro27,His35]-h-amylin (peptide)
peptide: K([γGlu-C20 diacid])RCNTATCATQRLANFLRHSSPNFGAIPSSTNVGSHTY-NH2
modifications: disulfide 3-8; N-terminus assumed
SMILES: CC[C@H](C)[C@H](NC(=O)[C@H](C)NC(=O)CNC(=O)[C@H](Cc1ccccc1)NC(=O)[C@H](CC(N)=O)NC(=O)[C@@H]1CCCN1C(=O)[C@H](CO)NC(=O)[C@H](CO)NC(=O)[C@H](Cc1c[nH]cn1)NC(=O)[C@H](CCCNC(=N)N)NC(=O)[C@H](CC(C)C)NC(=O)[C@H](Cc1ccccc1)NC(=O)[C@H](CC(N)=O)NC(=O)[C@H](C)NC(=O)[C@H](CC(C)C)NC(=O)[C@H](CCCNC(=N)N)NC(=O)[C@H](CCC(N)=O)NC(=O)[C@@H](NC(=O)[C@H](C)NC(=O)[C@@H]1CSSC[C@H](NC(=O)[C@H](CCCNC(=N)N)NC(=O)[C@@H](N)CCCCNC(=O)CC[C@H](NC(=O)CCCCCCCCCCCCCCCCCCC(=O)O)C(=O)O)C(=O)N[C@@H](CC(N)=O)C(=O)N[C@@H]([C@@H](C)O)C(=O)N[C@@H](C)C(=O)N[C@@H]([C@@H](C)O)C(=O)N1)[C@@H](C)O)C(=O)N1CCC[C@H]1C(=O)N[C@@H](CO)C(=O)N[C@@H](CO)C(=O)N[C@H](C(=O)N[C@@H](CC(N)=O)C(=O)N[C@H](C(=O)NCC(=O)N[C@@H](CO)C(=O)N[C@@H](Cc1c[nH]cn1)C(=O)N[C@H](C(=O)N[C@@H](Cc1ccc(O)cc1)C(N)=O)[C@@H](C)O)C(C)C)[C@@H](C)O
notes: 38 residues; also called compound 44
B3: N^ε1-[(4S)-4-carboxy-4-[[(4S)-4-carboxy-4-(19-carboxynonadecanoylamino)butanoyl]amino]butanoyl]-[Arg17,Pro21,Pro27,His34]-h-amylin (peptide)
peptide: K([γGlu-γGlu-C20 diacid])CNTATCATQRLANFLRHSSPNFGAIPSSTNVGHNTY-NH2
modifications: disulfide 2-7; N-terminus assumed
SMILES: CC[C@H](C)[C@H](NC(=O)[C@H](C)NC(=O)CNC(=O)[C@H](Cc1ccccc1)NC(=O)[C@H](CC(N)=O)NC(=O)[C@@H]1CCCN1C(=O)[C@H](CO)NC(=O)[C@H](CO)NC(=O)[C@H](Cc1c[nH]cn1)NC(=O)[C@H](CCCNC(=N)N)NC(=O)[C@H](CC(C)C)NC(=O)[C@H](Cc1ccccc1)NC(=O)[C@H](CC(N)=O)NC(=O)[C@H](C)NC(=O)[C@H](CC(C)C)NC(=O)[C@H](CCCNC(=N)N)NC(=O)[C@H](CCC(N)=O)NC(=O)[C@@H](NC(=O)[C@H](C)NC(=O)[C@@H]1CSSC[C@H](NC(=O)[C@@H](N)CCCCNC(=O)CC[C@H](NC(=O)CC[C@H](NC(=O)CCCCCCCCCCCCCCCCCCC(=O)O)C(=O)O)C(=O)O)C(=O)N[C@@H](CC(N)=O)C(=O)N[C@@H]([C@@H](C)O)C(=O)N[C@@H](C)C(=O)N[C@@H]([C@@H](C)O)C(=O)N1)[C@@H](C)O)C(=O)N1CCC[C@H]1C(=O)N[C@@H](CO)C(=O)N[C@@H](CO)C(=O)N[C@H](C(=O)N[C@@H](CC(N)=O)C(=O)N[C@H](C(=O)NCC(=O)N[C@@H](Cc1c[nH]cn1)C(=O)N[C@@H](CC(N)=O)C(=O)N[C@H](C(=O)N[C@@H](Cc1ccc(O)cc1)C(N)=O)[C@@H](C)O)C(C)C)[C@@H](C)O
notes: also called compound 86
B4: N^ε1-[(4S)-4-carboxy-4-[[(4S)-4-carboxy-4-(19-carboxynonadecanoylamino)butanoyl]amino]butanoyl]-[Glu14,Arg17,Pro21,Pro27,Arg35]-h-amylin (peptide)
peptide: K([γGlu-γGlu-C20 diacid])CNTATCATQRLAEFLRHSSPNFGAIPSSTNVGSRTY-NH2
modifications: disulfide 2-7; N-terminus assumed
SMILES: CC[C@H](C)[C@H](NC(=O)[C@H](C)NC(=O)CNC(=O)[C@H](Cc1ccccc1)NC(=O)[C@H](CC(N)=O)NC(=O)[C@@H]1CCCN1C(=O)[C@H](CO)NC(=O)[C@H](CO)NC(=O)[C@H](Cc1c[nH]cn1)NC(=O)[C@H](CCCNC(=N)N)NC(=O)[C@H](CC(C)C)NC(=O)[C@H](Cc1ccccc1)NC(=O)[C@H](CCC(=O)O)NC(=O)[C@H](C)NC(=O)[C@H](CC(C)C)NC(=O)[C@H](CCCNC(=N)N)NC(=O)[C@H](CCC(N)=O)NC(=O)[C@@H](NC(=O)[C@H](C)NC(=O)[C@@H]1CSSC[C@H](NC(=O)[C@@H](N)CCCCNC(=O)CC[C@H](NC(=O)CC[C@H](NC(=O)CCCCCCCCCCCCCCCCCCC(=O)O)C(=O)O)C(=O)O)C(=O)N[C@@H](CC(N)=O)C(=O)N[C@@H]([C@@H](C)O)C(=O)N[C@@H](C)C(=O)N[C@@H]([C@@H](C)O)C(=O)N1)[C@@H](C)O)C(=O)N1CCC[C@H]1C(=O)N[C@@H](CO)C(=O)N[C@@H](CO)C(=O)N[C@H](C(=O)N[C@@H](CC(N)=O)C(=O)N[C@H](C(=O)NCC(=O)N[C@@H](CO)C(=O)N[C@@H](CCCNC(=N)N)C(=O)N[C@H](C(=O)N[C@@H](Cc1ccc(O)cc1)C(N)=O)[C@@H](C)O)C(C)C)[C@@H](C)O
notes: also called compound 89
B5: N^ε1-[(4S)-4-carboxy-4-[[(4S)-4-carboxy-4-(19-carboxynonadecanoylamino)butanoyl]amino]butanoyl]-[Asp14,Arg17,Pro21,Pro27,Asp35]-h-amylin (peptide)
peptide: K([γGlu-γGlu-C20 diacid])CNTATCATQRLADFLRHSSPNFGAIPSSTNVGSDTY-NH2
modifications: disulfide 2-7; N-terminus assumed
SMILES: CC[C@H](C)[C@H](NC(=O)[C@H](C)NC(=O)CNC(=O)[C@H](Cc1ccccc1)NC(=O)[C@H](CC(N)=O)NC(=O)[C@@H]1CCCN1C(=O)[C@H](CO)NC(=O)[C@H](CO)NC(=O)[C@H](Cc1c[nH]cn1)NC(=O)[C@H](CCCNC(=N)N)NC(=O)[C@H](CC(C)C)NC(=O)[C@H](Cc1ccccc1)NC(=O)[C@H](CC(=O)O)NC(=O)[C@H](C)NC(=O)[C@H](CC(C)C)NC(=O)[C@H](CCCNC(=N)N)NC(=O)[C@H](CCC(N)=O)NC(=O)[C@@H](NC(=O)[C@H](C)NC(=O)[C@@H]1CSSC[C@H](NC(=O)[C@@H](N)CCCCNC(=O)CC[C@H](NC(=O)CC[C@H](NC(=O)CCCCCCCCCCCCCCCCCCC(=O)O)C(=O)O)C(=O)O)C(=O)N[C@@H](CC(N)=O)C(=O)N[C@@H]([C@@H](C)O)C(=O)N[C@@H](C)C(=O)N[C@@H]([C@@H](C)O)C(=O)N1)[C@@H](C)O)C(=O)N1CCC[C@H]1C(=O)N[C@@H](CO)C(=O)N[C@@H](CO)C(=O)N[C@H](C(=O)N[C@@H](CC(N)=O)C(=O)N[C@H](C(=O)NCC(=O)N[C@@H](CO)C(=O)N[C@@H](CC(=O)O)C(=O)N[C@H](C(=O)N[C@@H](Cc1ccc(O)cc1)C(N)=O)[C@@H](C)O)C(C)C)[C@@H](C)O
notes: also called compound 2

What follows are binders tested against T1, human amylin 3(a) receptor (human …) (assay: cell-based or functional assay).

Binder | Ratio hCT/hAmylin funct. (hCTR EC50 over hAmylin-R EC50) | hAmylin-R funct. EC50 (pM)
B1 | 16.7 | 260 pM
B2 | 24 | 198 pM
B3 | 64.4 | 298 pM
B4 | 27.8 | 404 pM
B5 | 16.4 | 182 pM
